The labels stand for the following.
B1: ETA, wild type, as used in the size exclusion chromatography analysis with Fab301, P25101 E234A (protein)
chain: DNPERYSTNLSNHVDDFTTFRGTELSFLVTTHQPTNLVLPSNGSMHNYCPQQTKITSAFKYINTVISCTIFIVGMVGNATLLRIIYQNKCMRNGPNALIASLALGDLIYVVIDLPINVFKLLAGRWPFDHNDFGVFLCKLFPFLQKSSVGITVLNLCALSVDRYRAVASWSRVQGIGIPLVTAIEIVSIWILSFILAIPEAIGFVMVPFEYRGAQHKTCMLNATSKFMEFYQDVKDWWLFGFYFCMPLVCTAIFYTLMTCEMLNRRNGSLRIALSEHLKQRREVAKTVFCLVVIFALCWFPLHLSRILKKTVYNEMDKNRCELLSFLLLMDYIGINLATMNSCINPIALYFVSKKFKNCFQSCLCCCCYQSKSLMTSVPMNGTSIQWKNHDQNNHNTDRSSHKDSMN
B2: ETA, wild type, as used in the size exclusion chromatography analysis with Fab301, P25101 F229A (protein)
chain: B1 chain with F209A, A214E
B3: ETA, wild type, as used in the size exclusion chromatography analysis with Fab301, P25101 E230A (protein)
chain: B1 chain with E210A, A214E
B4: ETA, wild type, as used in the size exclusion chromatography analysis with Fab301, P25101 Y231A (protein)
chain: B1 chain with Y211A, A214E
B5: ETA, wild type, as used in the size exclusion chromatography analysis with Fab301, P25101 G233A (protein)
chain: B1 chain with G213A, A214E
B6: ETA, wild type, as used in the size exclusion chromatography analysis with Fab301, P25101 R232A (protein)
chain: B1 chain with R212A, A214E
B7: ETA, wild type, as used in the size exclusion chromatography analysis with Fab301, P25101 Q235A (protein)
chain: B1 chain with A214E, Q215A

Where a chain is given by its changes, count along the chain named. Numbers in names are those of the source.

In the assay the target is Fab301, Fab fragment of the anti-ETA monoclonal antibody Getagozumab. Put plainly: size exclusion chromatography. Particulars: chain shown with the change;; parent: est. 0 min; read off a plot. Background: Size exclusion chromatography separates by hydrodynamic size, large species first.
Fab301, Fab fragment of the anti-ETA monoclonal antibody Getagozumab, sequence (chain, as listed by the source, chain 1 of 2): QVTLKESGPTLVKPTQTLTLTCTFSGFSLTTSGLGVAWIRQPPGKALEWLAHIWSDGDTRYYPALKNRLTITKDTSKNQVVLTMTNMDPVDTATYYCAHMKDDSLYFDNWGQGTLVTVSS
Fab301, Fab fragment of the anti-ETA monoclonal antibody Getagozumab, sequence (chain, as listed by the source, chain 2 of 2): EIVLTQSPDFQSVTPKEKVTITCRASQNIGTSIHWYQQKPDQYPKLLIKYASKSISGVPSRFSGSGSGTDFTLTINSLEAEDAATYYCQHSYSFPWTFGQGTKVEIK
As for B1, the other: Δt (SEC retention time of mutant–Fab301 complex minus WT–Fab301 complex) was determined as 0.019 min.

Regarding B2, the other: Δt (SEC retention time of mutant–Fab301 complex minus WT–Fab301 complex) was -0.004 min.

As for B3, the other: Δt (SEC retention time of mutant–Fab301 complex minus WT–Fab301 complex) worked out at 0.026 min.

B4: the other: Δt (SEC retention time of mutant–Fab301 complex minus WT–Fab301 complex) was 0.039 min.

In the case of B5, the other: Δt (SEC retention time of mutant–Fab301 complex minus WT–Fab301 complex) worked out at 0.056 min.

Regarding B6, the other: Δt (SEC retention time of mutant–Fab301 complex minus WT–Fab301 complex) amounted to 0.054 min.

B7: the other: Δt (SEC retention time of mutant–Fab301 complex minus WT–Fab301 complex) was 0.023 min.

The values above are taken from article PMC11286772, “Structural basis of antagonist selectivity in endothelin receptors” (Cell Discovery, 2024).
